± gives the uncertainty stated by the source.
Test: abundance fitness (aPCA) (normalised: wild type 0, dead -1); higher = more abundant; growth selection in yeast, the domain comes from the species named
Settings: Homo sapiens

Substance	abundance fitness
NEDD4-like E3 ubiquitin-protein ligase WWP2 P488F, O00308	-0.127 ± 0.064
NEDD4-like E3 ubiquitin-protein ligase WWP2 P488G, O00308	-0.032 ± 0.04
NEDD4-like E3 ubiquitin-protein ligase WWP2 P488H, O00308	0.024 ± 0.062
NEDD4-like E3 ubiquitin-protein ligase WWP2 P488I, O00308	-0.163 ± 0.069
NEDD4-like E3 ubiquitin-protein ligase WWP2 P488K, O00308	-0.04 ± 0.053
NEDD4-like E3 ubiquitin-protein ligase WWP2 P488L, O00308	-0.063 ± 0.038
NEDD4-like E3 ubiquitin-protein ligase WWP2 P488M, O00308	-0.018 ± 0.057
NEDD4-like E3 ubiquitin-protein ligase WWP2 P488N, O00308	0.021 ± 0.051
NEDD4-like E3 ubiquitin-protein ligase WWP2 P488Q, O00308	-0.028 ± 0.033
NEDD4-like E3 ubiquitin-protein ligase WWP2 P488T, O00308	-0.044 ± 0.048
NEDD4-like E3 ubiquitin-protein ligase WWP2 P488V, O00308	-0.037 ± 0.042
NEDD4-like E3 ubiquitin-protein ligase WWP2 P488W, O00308	-0.144 ± 0.048
NEDD4-like E3 ubiquitin-protein ligase WWP2 P488Y, O00308	-0.066 ± 0.043
NEDD4-like E3 ubiquitin-protein ligase WWP2 Q442A, O00308	-0.07 ± 0.035
NEDD4-like E3 ubiquitin-protein ligase WWP2 Q442C, O00308	0.121 ± 0.079
NEDD4-like E3 ubiquitin-protein ligase WWP2 Q442D, O00308	0.079 ± 0.066
NEDD4-like E3 ubiquitin-protein ligase WWP2 Q442E, O00308	0.069 ± 0.04
NEDD4-like E3 ubiquitin-protein ligase WWP2 Q442F, O00308	0.128 ± 0.059
NEDD4-like E3 ubiquitin-protein ligase WWP2 Q442G, O00308	-0.071 ± 0.052
NEDD4-like E3 ubiquitin-protein ligase WWP2 Q442H, O00308	-0.108 ± 0.086
NEDD4-like E3 ubiquitin-protein ligase WWP2 Q442K, O00308	0.195 ± 0.069
NEDD4-like E3 ubiquitin-protein ligase WWP2 Q442L, O00308	-0.058 ± 0.045

Substance	abundance fitness
NEDD4-like E3 ubiquitin-protein ligase WWP2 Q442M, O00308	0.038 ± 0.078
NEDD4-like E3 ubiquitin-protein ligase WWP2 Q442N, O00308	0.097 ± 0.086
NEDD4-like E3 ubiquitin-protein ligase WWP2 Q442P, O00308	-0.067 ± 0.039
NEDD4-like E3 ubiquitin-protein ligase WWP2 Q442S, O00308	0.008 ± 0.042
NEDD4-like E3 ubiquitin-protein ligase WWP2 Q442T, O00308	0.048 ± 0.03
NEDD4-like E3 ubiquitin-protein ligase WWP2 Q442V, O00308	0.093 ± 0.042
NEDD4-like E3 ubiquitin-protein ligase WWP2 Q442W, O00308	-0.122 ± 0.072
NEDD4-like E3 ubiquitin-protein ligase WWP2 Q442Y, O00308	0.033 ± 0.048
NEDD4-like E3 ubiquitin-protein ligase WWP2 Q485A, O00308	-0.036 ± 0.039
NEDD4-like E3 ubiquitin-protein ligase WWP2 Q485C, O00308	-0.071 ± 0.053
NEDD4-like E3 ubiquitin-protein ligase WWP2 Q485D, O00308	-0.003 ± 0.053
NEDD4-like E3 ubiquitin-protein ligase WWP2 Q485E, O00308	-0.034 ± 0.046
NEDD4-like E3 ubiquitin-protein ligase WWP2 Q485F, O00308	-0.149 ± 0.075
NEDD4-like E3 ubiquitin-protein ligase WWP2 Q485G, O00308	-0.004 ± 0.035
NEDD4-like E3 ubiquitin-protein ligase WWP2 Q485L, O00308	-0.053 ± 0.035
NEDD4-like E3 ubiquitin-protein ligase WWP2 Q485M, O00308	-0.038 ± 0.048
NEDD4-like E3 ubiquitin-protein ligase WWP2 Q485N, O00308	0.095 ± 0.067
NEDD4-like E3 ubiquitin-protein ligase WWP2 Q485P, O00308	-0.184 ± 0.068
NEDD4-like E3 ubiquitin-protein ligase WWP2 Q485R, O00308	-0.028 ± 0.038
NEDD4-like E3 ubiquitin-protein ligase WWP2 Q485S, O00308	-0.053 ± 0.046
NEDD4-like E3 ubiquitin-protein ligase WWP2 Q485W, O00308	-0.149 ± 0.062
NEDD4-like E3 ubiquitin-protein ligase WWP2 Q485Y, O00308	-0.126 ± 0.072

Substance	abundance fitness
NEDD4-like E3 ubiquitin-protein ligase WWP2 R460A, O00308	-0.072 ± 0.044
NEDD4-like E3 ubiquitin-protein ligase WWP2 R460C, O00308	-0.277 ± 0.074
NEDD4-like E3 ubiquitin-protein ligase WWP2 R460D, O00308	-0.169 ± 0.083
NEDD4-like E3 ubiquitin-protein ligase WWP2 R460E, O00308	-0.183 ± 0.063
NEDD4-like E3 ubiquitin-protein ligase WWP2 R460F, O00308	-0.261 ± 0.065
NEDD4-like E3 ubiquitin-protein ligase WWP2 R460G, O00308	-0.166 ± 0.041
NEDD4-like E3 ubiquitin-protein ligase WWP2 R460H, O00308	-0.033 ± 0.081
NEDD4-like E3 ubiquitin-protein ligase WWP2 R460I, O00308	-0.036 ± 0.074
NEDD4-like E3 ubiquitin-protein ligase WWP2 R460K, O00308	-0.088 ± 0.064
NEDD4-like E3 ubiquitin-protein ligase WWP2 R460L, O00308	-0.088 ± 0.036
NEDD4-like E3 ubiquitin-protein ligase WWP2 R460N, O00308	-0.343 ± 0.073
NEDD4-like E3 ubiquitin-protein ligase WWP2 R460P, O00308	-0.032 ± 0.06
NEDD4-like E3 ubiquitin-protein ligase WWP2 R460Q, O00308	-0.104 ± 0.054
NEDD4-like E3 ubiquitin-protein ligase WWP2 R460S, O00308	-0.153 ± 0.06
NEDD4-like E3 ubiquitin-protein ligase WWP2 R460T, O00308	-0.032 ± 0.061
NEDD4-like E3 ubiquitin-protein ligase WWP2 R460V, O00308	-0.137 ± 0.044
NEDD4-like E3 ubiquitin-protein ligase WWP2 R460W, O00308	-0.413 ± 0.036
NEDD4-like E3 ubiquitin-protein ligase WWP2 R460Y, O00308	-0.558 ± 0.12
NEDD4-like E3 ubiquitin-protein ligase WWP2 R468A, O00308	-0.157 ± 0.035
NEDD4-like E3 ubiquitin-protein ligase WWP2 R468C, O00308	-0.184 ± 0.06
NEDD4-like E3 ubiquitin-protein ligase WWP2 R468D, O00308	-0.479 ± 0.06
NEDD4-like E3 ubiquitin-protein ligase WWP2 R468E, O00308	-0.14 ± 0.039

Substance	abundance fitness
NEDD4-like E3 ubiquitin-protein ligase WWP2 R468G, O00308	-0.2 ± 0.033
NEDD4-like E3 ubiquitin-protein ligase WWP2 R468H, O00308	-0.015 ± 0.08
NEDD4-like E3 ubiquitin-protein ligase WWP2 R468I, O00308	-0.51 ± 0.12
NEDD4-like E3 ubiquitin-protein ligase WWP2 R468K, O00308	-0.071 ± 0.071
NEDD4-like E3 ubiquitin-protein ligase WWP2 R468L, O00308	-0.191 ± 0.047
NEDD4-like E3 ubiquitin-protein ligase WWP2 R468M, O00308	-0.11 ± 0.033
NEDD4-like E3 ubiquitin-protein ligase WWP2 R468N, O00308	-0.208 ± 0.08
NEDD4-like E3 ubiquitin-protein ligase WWP2 R468Q, O00308	-0.111 ± 0.066
NEDD4-like E3 ubiquitin-protein ligase WWP2 R468S, O00308	-0.212 ± 0.053
NEDD4-like E3 ubiquitin-protein ligase WWP2 R468T, O00308	-0.336 ± 0.069
NEDD4-like E3 ubiquitin-protein ligase WWP2 R468V, O00308	-0.352 ± 0.036
NEDD4-like E3 ubiquitin-protein ligase WWP2 R468W, O00308	-0.336 ± 0.066
NEDD4-like E3 ubiquitin-protein ligase WWP2 R468Y, O00308	-0.251 ± 0.064
NEDD4-like E3 ubiquitin-protein ligase WWP2 R476A, O00308	-0.291 ± 0.058
NEDD4-like E3 ubiquitin-protein ligase WWP2 R476C, O00308	-0.198 ± 0.061
NEDD4-like E3 ubiquitin-protein ligase WWP2 R476D, O00308	-0.297 ± 0.047
NEDD4-like E3 ubiquitin-protein ligase WWP2 R476F, O00308	-0.505 ± 0.084
NEDD4-like E3 ubiquitin-protein ligase WWP2 R476G, O00308	-0.206 ± 0.051
NEDD4-like E3 ubiquitin-protein ligase WWP2 R476H, O00308	-0.4 ± 0.081
NEDD4-like E3 ubiquitin-protein ligase WWP2 R476K, O00308	-0.248 ± 0.069
NEDD4-like E3 ubiquitin-protein ligase WWP2 R476L, O00308	-0.202 ± 0.037
NEDD4-like E3 ubiquitin-protein ligase WWP2 R476M, O00308	-0.324 ± 0.048
